This note sets out measurements from US7108990B2, “Chemokine receptor” (ChemoCentryx, Inc., priority 1999, dated 2006).

Entries after “also recorded” stand apart in the source; their conditions may differ.

Assay [1] deals with T1, CCX CKR (Homo sapiens, UniProt Q9NPB9).
T1 construct: Full length CCX CKR expression constructs were made in pIRESpuro expression vector; expressed in transfected cells
T1 sequence (Q9NPB9 1-350): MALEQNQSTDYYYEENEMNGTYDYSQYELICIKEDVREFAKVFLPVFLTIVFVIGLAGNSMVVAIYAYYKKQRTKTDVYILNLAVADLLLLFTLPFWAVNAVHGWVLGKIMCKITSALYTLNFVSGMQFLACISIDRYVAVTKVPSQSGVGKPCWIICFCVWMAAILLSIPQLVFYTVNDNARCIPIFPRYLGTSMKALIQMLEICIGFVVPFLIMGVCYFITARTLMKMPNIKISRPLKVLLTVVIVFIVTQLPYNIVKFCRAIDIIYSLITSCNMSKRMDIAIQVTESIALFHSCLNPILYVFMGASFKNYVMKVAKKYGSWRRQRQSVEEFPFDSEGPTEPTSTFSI
The assay is described as follows: Adhesion of HEK293-CCX CKR cells to immobilized stalkokines and competition by soluble chemokines. Format: cell-based. As to conditions: soluble recombinant chemokine 5–10 ug/ml. From the text: “Stalkokine” technology was used to identify the chemokines bound by the CCX CKR. Briefly, immobilized native chemokines alone are incapable of capturing cells bearing cognate receptors (Imai et al., 1997, Cell 91:521). We have developed non-native chemokine structures, stalkokines, comprising chemokine moieties engineered as N-terminal attachments to extended modified mucins (Bazan et al., 1997, Nature 385:640). In one embodiment, stalkokines, harvested in the supernatants of HEK293 cells after transient transfection, are anchored to solid substrates via antibodies against carrier domains (e.g. poly-His epitopes) engineered to the carboxyl terminus, leaving the chemokine domain free to interact with candidate orphan receptors.
To determine ligand binding to CCX CKR, HEK293-CCX CKR cells were used to interrogate chemokine ‘stalkokines’ (SK), i.e., molecules in which discrete chemokine domains were engineered to be tethered to the end of an extended stalk structure. Stalkokines were interrogated using 8-well chamber slides coated first with anti-His anchoring antibody (10 ug/ml in PBS overnight at RT), which were washed and ‘blocked’ (2% FBS/0.5% BSA in PBS); treated with 250 ul of HEK293 cell stalkokine supernatants (1 hr at 37 C), and incubated with 500,000 HEK293-CCX CKR transfectants (1.5 hrs at RT). Inhibition of adhesion by competition with soluble chemokines was done by incubating cells with 5–10 ug/ml of recombinant chemokines. In all cases, nonadherent cells were removed by washing in PBS; remaining adherent cells were fixed with 1% glutaraldehyde, photoimaged and counted. As a primary screen this adhesion would reveal putative receptor-ligand interactions.

Assay [2] deals with T1, CCX CKR. The assay is described as follows: Ligand induced internalization of Flag-CCX CKR in 293 cells (FACS). Format: cell-based. The conditions noted are these: 100 nM chemokine, 37° C., 15 or 45 minutes, 293 F-CCR10 cells. As to the method: 293 cells transfected with the Flag-CCX CKR fusion plasmid (i.e., “293 F-CCR10 cells;” see Example 3) were incubated at 37° C. with varying concentrations of chemokines (ELC, SLC, TECK, murine CTACK and MCP-4) for 15 or 45 minutes. Following incubation, the cells were washed and fixed with 3% paraformaldehyde for 15 minutes on ice. The cells were stained with anti-Flag M1 antibody, followed by a PE-conjugated anti-mouse secondary antibody. FACS analysis were then carried out to determine surface expression of the receptor.
Results: A reduction in antibody binding in the presence of ligand is an indication of ligand-induced internalization of the receptor.

In assay [3] the target is T1, CCX CKR. The assay is described as follows: Radioligand binding competition (DisplaceMax) to CCX CKR stable transfectants with Scatchard transformation. An excerpt: In one embodiment, binding is detected as described by Dairaghi et al., 1997, J. Biol. Chem. 272:28206–209 (incorporated by reference in its entirety for all purposes) substituting CCX CKR transfectants for the CCR3 transfectants). In one embodiment, binding is detected using the filter based technique described by Dairaghi et al., 1999, J. Biol. Chem. 274:2156 (incorporated by reference in its entirety for all purposes), e.g., as shown in FIG. 4. Briefly, this technology employs expanded, efficiency-maximized radioligand binding utilizing filtration protocols. In these assays, 1×10^5 CCXCKR-293 HEK cells are incubated with ^125I-labeled ELC (MIP3beta) (final concentration of ˜0.05 nM) in the presence of unlabeled chemokine for 3 h at 4° C. in 25 mM HEPES, 140 mM NaCl, 1 mM CaCl2, 5 mM MgCl2, and 0.2% bovine serum albumin, adjusted to pH 7.1. Reactions were aspirated onto PEI-treated GF/B glass filters using a cell harvester (Packard). Filters are washed twice (25 mM HEPES, 500 mM NaCl, 1 mM CaCl2 5 mM MgCl2, adjusted to pH 7.1) and scintillant (e.g., MicroScint 20; 50 μl) is added to dried filters and counted (e.g., using a Packard Topcount scintillation counter). The competition dose-response curves is analyzed by standard methods to determine IC50 values (e.g., using GraphPad Prism software (San Diego, Calif.)). Additionally, a Scatchard transformation can be used to estimate the receptor sites per cell (e.g., using WaveMetrics Igor software (Lake Oswego, Oreg.)).
(§1) Binding analysis was carried out using efficiency-maximized radioligand binding utilizing filtration protocols designated “Displace Max” (Dairaghi et al., 1999, J. Biol. Chem. 274:21569). In these assays, DisplaceMax employed the simultaneous interrogation of CCX CKR transfectants by >80 distinct purified chemokines in the ability to displace radiolabeled ELC or TECK, using the protocol described (Dairaghi et al., 1999, J. Biol. Chem. 274:21569).
The binding interactions identified in the primary screen were examined quantitatively by extensive radioligand binding competition to CCX CKR stable transfectants and Scatchard transformation of the displacement data (FIG. 4B). […] In each case, the murine versions of these chemokines also bound, and with even greater affinity; the apparent Kd's are listed in FIG. 4B. […] In similar experiments, murine CTACK bound the receptor with a Kd of ˜9 nM (not shown). CTACK is also referred to as CCL27, ALP, ILC, and ESkine.

Assay [4] addresses T1, CCX CKR. Put plainly: Ligand binding fingerprint: cold chemokines competing against 125I-ELC on CCX CKR stable transfectants. As to conditions: cold competitor at 200 nM; human and murine chemokines.
Text: In order to rapidly and thoroughly define a given chemokine receptor's ligand binding fingerprint, we have established an approach to comprehensively profile chemokine receptors using a large array of purified chemokines and chemokine variants. We used this approach to confirm independently the interaction of ELC and other chemokines with CCX CKR. Employing radioligand binding of ^125-labeled-ELC or ^125-TECK to CCX CKR stable transfectants, chemokine specificity for the new receptor was determined.
as §1

For assay [5], the target named is T1, CCX CKR. The assay is described as follows: Homologous competition binding assay with radiolabeled chemokine on HEK293-CCX CKR cells. As to conditions: HEK293-CCX CKR cells versus wildtype HEK293 cells. From the text:
Furthermore ELC-SK mediated adhesion was abolished in the presence of soluble native ELC as a competitor (FIG. 3A, top row). […] Moreover, radiolabeled ELC was used in a traditional homologous competition assay in the presence of increasing concentrations of unlabeled ELC. […] Taken together, the stalkokine-based adhesion and radiolabeled ligand binding/homologous competition assays indicate that CCX CKR is a new chemokine receptor that bound a novel compliment of chemokines.

Assay [6] addresses T1, CCX CKR. Put plainly: Preliminary chemotaxis analysis of CCX CKR transfectants. The conditions noted are these: preliminary chemotaxis analyses. It counts as cell-based.

For the molecule ELC: EBI1 ligand chemokine, recombinant, in assay [1], the “effect of soluble chemokine on ELC-SK mediated adhesion of HEK293-CCX CKR cells” value is recorded as “abolished; also recorded: ablation of adhesion”. In assay [2], the “internalization of CCX CKR” value was “Internalization of the receptor was observed”. For the same molecule, the “affinity of binding to CCX CKR, in words” value in assay [3] was “high affinity”. In assay [4], the “competition with 125I-labeled ELC binding to CCX CKR (fingerprint)” value is reported as “bound well”. Moreover, the “binding in homologous competition of radiolabeled with unlabeled chemokine” value in assay [5] is recorded as “significant binding”. Moreover, the “migration of CCX CKR transfectants in response to chemokine” value in assay [6] is on record as “moderate migration”.

B1: SLC: secondary lymphoid-tissue chemokine, recombinant (protein)
chain: SDGGAQDCCLKYSQRKIPAKVVRSYRKQEPSLGCSIPAILFLPRKRSQAELCADPKELWVQQLMQHLDKTPSPQKPAQGCRKDRGASKTGKKGKGSKGCKRTERSQTPKGP
Turning to B1, the “effect of soluble chemokine on ELC-SK mediated adhesion of HEK293-CCX CKR cells” value in assay [1] is reported as “significant reduction; also recorded: ablation of adhesion”. Moreover, the “internalization of CCX CKR” value in assay [2] is given as “Internalization of the receptor was observed”. Also, the “affinity of binding to CCX CKR, in words” value in assay [3] was “high affinity”. Moreover, the “competition with 125I-labeled ELC binding to CCX CKR (fingerprint)” value in assay [4] was “bound well”. For the same molecule, in assay [6], the “migration of CCX CKR transfectants in response to chemokine” value is on record as “moderate migration”.
